In patent US6136558A, “Heregulin variants” (Genentech, Inc., priority 1998, dated 2000):
Substitutions are numbered along the chain they refer to. Names and notes keep the numbering of the source.

Experiments:
[1] = biological target: ErbB-3 receptor-Ig fusion (human) (UniProt P21860); assay: phage ELISA, soluble ErbB-3-Ig as competitor
[2] = biological target: ErbB-4 receptor-Ig fusion (human) (UniProt Q15303); assay: phage ELISA, soluble ErbB-4-Ig as competitor
[3] = biological target: ErbB-3 receptor-Ig fusion (human) (UniProt P21860); assay: phage ELISA, ratio to wild-type HRG8 phage
[4] = biological target: ErbB-3 receptor-Ig fusion (human) (UniProt P21860); assay: displacement of 125I-HRG-β1 177-244 from ErbB-3-Ig
[5] = biological target: ErbB-4 receptor-Ig fusion (human) (UniProt Q15303); assay: displacement of 125I-HRG-β1 177-244 from ErbB-4-Ig

HRG-β1 177-244 F216A on phage (ligand)
EC50 [1]: 500 nM
EC50 [2]: > 1000 nM

HRG-β1 177-244 G218A on phage (ligand)
EC50 [1]: > 1000 nM
EC50 [2]: > 1000 nM

HRG-β1 177-244 L179A on phage (ligand)
EC50 [1]: 1000 nM
EC50 [2]: 56 nM

HRG-β1 177-244 K200A on phage (ligand)
EC50 [1]: 20 nM
EC50 [2]: 25 nM

HRG-β1 177-244 N192A on phage (ligand)
EC50 [1]: > 1000 nM
EC50 [2]: 188 nM

HRG-β1 177-244 H178A on phage (ligand)
EC50 [1]: > 1000 nM
EC50 [2]: 32 nM

HRG-β1 177-244 R207A on phage (ligand)
EC50 [1]: > 1000 nM
EC50 [2]: 30 nM

HRG-β1 177-244 F229A on phage (ligand)
EC50 [1]: 6 nM
EC50 [2]: > 1000 nM

HRG-β1 177-244 T217A on phage (ligand)
EC50 [1]: > 1000 nM
EC50 [2]: 14.2 nM

HRG-β1 177-244 Y224A on phage (ligand)
EC50 [1]: 865 nM
EC50 [2]: 51 nM

HRG-β1 177-244 P205A on phage (ligand)
EC50 [1]: 22 nM
EC50 [2]: 8 nM

HRG-β1 177-244 G193A on phage (ligand)
EC50 [1]: > 1000 nM
EC50 [2]: 23 nM

HRG-β1 177-244 S177A on phage (ligand)
EC50 [1]: 67 nM
EC50 [2]: 83 nM

HRG-β1 177-244 K211A on phage (ligand)
EC50 [1]: > 1000 nM
EC50 [2]: 59 nM

HRG-β1 177-244 E195A on phage (ligand)
EC50 [1]: > 1000 nM
EC50 [2]: 24 nM

B1: B5 (phage) (ligand)
chain: SHLVKCGWDREGFCVNGGECFMVKDLSNPSRYLCKCPNEFTGDRCQNYVIAS
EC50(wt)/EC50(mut) [3]: 26

B2: HRG56 (phage) (ligand)
chain: B1 chain with W8E, D9E
EC50(wt)/EC50(mut) [3]: 31

B3: HRG37 (phage) (ligand)
chain: B1 chain with S1W, H2E, K5P
EC50(wt)/EC50(mut) [3]: 13

B4: HRG60 (phage) (ligand)
chain: B1 chain with W8E, D9E, F21Y, M22R, D25T
EC50(wt)/EC50(mut) [3]: 63

B5: HRG53 (phage) (ligand)
chain: B1 chain with W8E, D9E, F21Y, M22R, D25T, I50M
EC50(wt)/EC50(mut) [3]: 26

B6: B10 (phage) (ligand)
chain: B1 chain with G7D, W8K, D9S
EC50(wt)/EC50(mut) [3]: 9.3

SHLVKCGEEREGFCVNGGECFMVKDYGYLMCKCPNEFTGDRCQNYVMAS (ligand) [HRG54 (phage)]
EC50(wt)/EC50(mut) [3]: 12

SHLVKCGEEREGFCVNGGECYRVKTYGYLMCKCPNEFTGDRCQNYVIAS (ligand) [HRG62 (phage)]
EC50(wt)/EC50(mut) [3]: 32

SHLVKCGEEREGFCVNGGECFMVKDYGYLMCKCPNEFTGDRCQNYVIAS (ligand) [HRG61 (phage)]
EC50(wt)/EC50(mut) [3]: 29

SHLVKCGEEREGFCVNGGECYRVKTYGYLMCKCPNEFTGDRCQNYVMAS (ligand) [HRG55 (phage)]
EC50(wt)/EC50(mut) [3]: 13

B7: A1 (phage) (ligand)
chain: WRLVPCAEKEKTFCVNGGECFMVKDLSNPSRYLCKCPNEFTGDRCQNYVMAS
EC50(wt)/EC50(mut) [3]: 0.55

B8: I1 (phage) (ligand)
chain: B7 chain with W1S, R2H, P5K, N47W, M50I
EC50(wt)/EC50(mut) [3]: 13

B9: D10 (phage) (ligand)
chain: B7 chain with W1S, R2H, P5K, F21Y, D25T
EC50(wt)/EC50(mut) [3]: 2.1

B10: H5 (phage) (ligand)
chain: B7 chain with W1S, R2H, P5K, D43E
EC50(wt)/EC50(mut) [3]: 1.5

B11: A2 (phage) (ligand)
chain: B7 chain with R2S, V4Q
EC50(wt)/EC50(mut) [3]: 0.87

B12: A4 (phage) (ligand)
chain: B7 chain with R2S, P5K
EC50(wt)/EC50(mut) [3]: < 0.3

SHLVKCAEKEKTFCVNGGECFMVKDPSRYLCKCPNEFTGDRCQNYVMAS (ligand) [HRG63 (phage)]
EC50(wt)/EC50(mut) [3]: 1.1

SHLVKCAEKEKTFCVNGGECFMVKDYRYRMCKCPNEFTGDRCQNYVIAS (ligand) [E3 (phage)]
EC50(wt)/EC50(mut) [3]: 16

SHLVKCAEKEKTFCVNGGECFMVKDYGYLMCKCPNEFTGDRCQNYVIAS (ligand) [HRG48 (phage)]
EC50(wt)/EC50(mut) [3]: 49

B13: Trx-HRG-β1 146-244 S177A fusion (ligand)
chain: DDDDKAYVSSESPIRISVSTEGANTSSSTSTSTTGTAHLVKCAEKEKTFCVNGGECFMVKDLSNPSRYLCKCPNEFTGDRCQNYVMASFYKHLGIEFMEAEELY
EC50 [4]: 129 nM
EC50 [5]: 54.6 nM

B14: Trx-HRG-β1 146-244 G194A fusion (ligand)
chain: B13 chain with A37S, G54A
EC50 [4]: 1210 nM
EC50 [5]: 275 nM

B15: Trx-HRG-β1 146-244 R207A fusion (ligand)
chain: B13 chain with A37S, R67A
EC50 [4]: 245 nM
EC50 [5]: 24.3 nM

B16: Trx-HRG-β1 146-244 N192A fusion (ligand)
chain: B13 chain with A37S, N52A
EC50 [4]: 1640 nM
EC50 [5]: 696 nM

B17: Trx-HRG-β1 146-244 V199A fusion (ligand)
chain: B13 chain with A37S, V59A
EC50 [5]: 246 nM

B18: Trx-HRG-β1 146-244 H178A fusion (ligand)
chain: B13 chain with A37S, H38A
EC50 [4]: 476 nM
EC50 [5]: 138 nM

B19: Trx-HRG-β1 146-244 G218A fusion (ligand)
chain: B13 chain with A37S, G78A
EC50 [4]: 668 nM
EC50 [5]: 608 nM

B20: Trx-HRG-β1 146-244 E215A fusion (ligand)
chain: B13 chain with A37S, E75A
EC50 [4]: 156 nM
EC50 [5]: 104 nM

B21: Trx-HRG-β1 146-244 P205A fusion (ligand)
chain: B13 chain with A37S, P65A
EC50 [4]: 39.5 nM
EC50 [5]: 34.2 nM

B22: Trx-HRG-β1 146-244 F189A fusion (ligand)
chain: B13 chain with A37S, F49A
EC50 [4]: 975 nM
EC50 [5]: 565 nM

B23: Trx-HRG-β1 146-244 K200A fusion (ligand)
chain: B13 chain with A37S, K60A
EC50 [4]: 45.4 nM
EC50 [5]: 16.9 nM

B24: Trx-HRG-β1 146-244 L179A fusion (ligand)
chain: B13 chain with A37S, L39A
EC50 [4]: 394 nM
EC50 [5]: 51.7 nM

B25: Trx-HRG-β1 146-244 F229A fusion (ligand)
chain: B13 chain with A37S, F89A
EC50 [4]: 177 nM
EC50 [5]: 89.9 nM

B26: Trx-HRG-β1 146-244 E195A fusion (ligand)
chain: B13 chain with A37S, E55A
EC50 [4]: 42 nM
EC50 [5]: 13.2 nM

B27: Trx-HRG-β1 146-244 K211A fusion (ligand)
chain: B13 chain with A37S, K71A
EC50 [4]: 248 nM
EC50 [5]: 124 nM

B28: Trx-HRG-β1 146-244 T217A fusion (ligand)
chain: B13 chain with A37S, T77A
EC50 [4]: 145 nM
EC50 [5]: 32.7 nM

B29: Trx-HRG-β1 146-244 Y224A fusion (ligand)
chain: B13 chain with A37S, Y84A
EC50 [4]: 339 nM
EC50 [5]: 24.5 nM

B30: Trx-HRG-β1 146-244 F216A fusion (ligand)
chain: B13 chain with A37S, F76A
EC50 [4]: 2550 nM
EC50 [5]: 173 nM

B31: Trx-HRG-β1 146-244 G193A fusion (ligand)
chain: B13 chain with A37S, G53A
EC50 [4]: 26.9 nM
EC50 [5]: 76.3 nM

B32: recombinantly produced HRG-β1 177-244 (ligand)
chain: SHLVKCAEKEKTFCVNGGECFMVKDLSNPSRYLCKCPNEFTGDRCQNYVMASFYKHLGIEFMEAEELY
EC50 [4]: 9 nM
EC50 [5]: 14.8 nM

B33: D1 (phage) (ligand)
chain: SHLVKCAEKEKTFCVNGGECYKVRILSNPSRYLCKCPNEFTGDRCQNYVIAS
EC50(wt)/EC50(mut) [3]: 11

B34: HRG59 (phage) (ligand)
chain: B33 chain with K22R, R24K, I25T
EC50(wt)/EC50(mut) [3]: 26

SHLVKCAEKEKTFCVNGGECYRVKTYGYLMCKCPNEFTGDRCQNYVMAS (ligand) [HRG57 (phage)]
EC50(wt)/EC50(mut) [3]: 24

SHLVKCAEKEKTFCVNGGECYRVKTYGYLMCKCPNEFTGDRCQHYVIAS (ligand) [HRG71 (phage)]
EC50(wt)/EC50(mut) [3]: 79
